In this assay the target is IL-15 βγ receptors on 32Dβ cells (UniProt P14784). The assay is described as follows: cell-based or functional assay.
Chain of UniProt P14784 (P14784 27-551, chain 1 of 2): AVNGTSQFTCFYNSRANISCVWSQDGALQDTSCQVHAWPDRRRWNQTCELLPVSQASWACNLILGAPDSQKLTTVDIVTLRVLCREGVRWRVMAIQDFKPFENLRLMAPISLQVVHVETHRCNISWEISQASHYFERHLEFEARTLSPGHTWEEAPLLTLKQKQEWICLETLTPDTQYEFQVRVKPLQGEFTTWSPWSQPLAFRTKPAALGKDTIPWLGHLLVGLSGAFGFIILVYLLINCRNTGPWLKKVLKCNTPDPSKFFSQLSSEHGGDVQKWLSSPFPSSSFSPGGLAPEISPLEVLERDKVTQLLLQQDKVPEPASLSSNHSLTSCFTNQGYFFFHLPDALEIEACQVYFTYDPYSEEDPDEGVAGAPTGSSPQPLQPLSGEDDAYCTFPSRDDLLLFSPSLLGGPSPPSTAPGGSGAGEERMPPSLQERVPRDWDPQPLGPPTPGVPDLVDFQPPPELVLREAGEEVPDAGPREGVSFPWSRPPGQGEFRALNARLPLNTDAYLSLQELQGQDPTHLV
Chain of UniProt P14784 (P34902 23-369, chain 2 of 2, further chain): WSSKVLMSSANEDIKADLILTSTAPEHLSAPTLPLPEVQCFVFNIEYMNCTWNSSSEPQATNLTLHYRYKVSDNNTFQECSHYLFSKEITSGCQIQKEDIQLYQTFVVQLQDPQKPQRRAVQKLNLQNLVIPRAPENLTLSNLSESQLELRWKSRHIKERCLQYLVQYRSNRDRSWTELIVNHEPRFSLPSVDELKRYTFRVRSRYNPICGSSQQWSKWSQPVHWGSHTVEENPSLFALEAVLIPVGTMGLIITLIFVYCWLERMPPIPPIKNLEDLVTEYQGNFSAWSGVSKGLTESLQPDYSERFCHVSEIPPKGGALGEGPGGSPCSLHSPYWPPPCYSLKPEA

With “IL-15 (from UniProt P40933 49-162) (ligand)”, the 32Dβ cell proliferation (WST-1), EC50 was 34 pM.
